The text below walks through data of patent US20090324601A1 (published 2009).

Positions count from the first letter of the chain named.

B1: 3.805.1.3 (antibody, V domains shown)
VH: QVQLVESGGGVVQPGRSLRLSCAASGFTFSSYGMHWVRQAPGKGLEWVAVIWYDRSNKYYADSVKGRFTISRDNSKNTLYLQMNSLRAEDTAVYYCAGGRSRGAFDYWGQGTLVTVSS
VL: DIQMTQSPSSVSASVGDRVTITCRASQGISSWLAWYQQKPGKAPNLLIYAASSLQSGVPSRFSGSGSGTDFTLTISSLQPEDFATYYCQRTNNFPRTFGQGTKVEIK
B2: 3.772.2 (antibody, V domains shown)
VH: B1 VH with Y107F
VL: B1 VL with G28D, P40A, N45K, N93S
B3: 2.2002.3 (antibody, V domains shown)
VH: QVQLVESGGGVVQPGRSLRVSCAASGFMFRSYGMHWVRQAPGKGLEWVAVIWHDGSNKNHGDSVKGRFTISRDNSKNTLYLQMNSLRAEDTAVYYCARGRLAGGGPYYYYYYGMDVWGQGTTVTVSS
VL: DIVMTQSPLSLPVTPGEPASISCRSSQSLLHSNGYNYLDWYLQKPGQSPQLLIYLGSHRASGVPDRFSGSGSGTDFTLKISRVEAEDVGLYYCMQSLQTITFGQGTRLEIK
notes: Variable regions only
B4: 3.87.1.1 (antibody, V domains shown)
VH: B1 VH
VL: B1 VL with N45K, Y49F, N93S
notes: Variable regions only
B5: 3.472.1.1 (antibody, V domains shown)
VH: B1 VH with A61V
VL: B1 VL with G28D, N45K, Y49F, N92S, N93S
notes: Variable regions only
B6: 3.457.3.1 (antibody, V domains shown)
VH: B1 VH with Y107F
VL: B1 VL with P40A, N45K, A50S, N93S
notes: Variable regions only
B7: 3.772.2 (antibody, V domains shown)
VH: B1 VH with Y107F
VL: B1 VL with G28D, P40A, N45K, N93S
notes: Variable regions only
B8: 3.805.1.3 (antibody, V domains shown)
VH: B1 VH
VL: B1 VL
notes: Variable regions only
B9: 3.341.1 (antibody, V domains shown)
VH: EVQLVESGGGLVQPGGSLRLSCAASGFTFSSYSMNWVRQAPGKGLEWVSFISGSSSTMYYADSVKGRFTISRDNAKNSLYLQMNSLRDEDTAVYYCARLRYFDWSYAFDIWGQGTMVTVSS
VL: DIQMTQSPSSVSTSVGDRVTITCRASQGIRSWLAWYQQRPGKAPKLLIYAASSLQNGVPSRFSGSGSGTDFTLTISSLQPEDFATYFCQQATSFPFTFGPGTKVDIN
notes: Variable regions only; the assays name clone 3.341.2; also called 3.341.2
B10: 3.818.4 (antibody, V domains shown)
VH: B9 VH with F50Y, S56T, Y101H
VL: B9 VL with R30S, N56S, D105G, N107K
notes: Variable regions only
B11: 2.796.2 (antibody, V domains shown)
VH: QVQLVESGGGLVKPGGSLRLSCAASGFTFSDYYMNWIRQAPGKGLEWVSYISSSGSIIYYADSVKGRFTISRDNAKNSLYLQMNSLRAEDTAVYYCARDGHIAARGMDVWGQGTTVTVSS
VL: DIQMTQSPSSLSASVGDRVTITCRASQSFSRYINWYQQKPGKAPKLLIYAASSLQGGVPSRFSGSGSGTDFTLTISSLQPEDFATYYCQQTYSNPPITFGQGTRLEIK
notes: Variable regions only
B12: 2.737.1.4 (antibody, V domains shown)
VH: B11 VH with S30R, N35S, S49A, Y50F, Y80F
VL: B11 VL with F29I, S30N, R31K, G56S, S63N, L73F, S76N, S77T, N94T
notes: Variable regions only
B13: 2.2071.1.3 (antibody, V domains shown)
VH: B11 VH with H101R, A103V
VL: B11 VL with I21L, Q27H, F29I, S30N, G56S, S65N, T91S, N94T, K108T
notes: Variable regions only
B14: 2.449.1.3 (antibody, V domains shown)
VH: B11 VH with D99E, H101R
VL: B11 VL with T20S, A25P, Y49H, Q55V, I107M
notes: Variable regions only
B15: 2.1954.2 (antibody, V domains shown)
VH: QVQLVESGGGVVQPGRSLRLSCAASGFSFSIYGMHWVRQAPGKGLEWVAVIWFDGSNKYYADSVKGRFTISRDNSKNTLYLQMNSLRAEDTALYYCARDKASYYGSGMDYWGQGTLVTVSS
VL: EIVLTQSPGTLSLSPGERATLSCRASQSVSSTYLAWYQHRPGQAPRLLISGASRRATGIPDRFSGSGSGTDFTLTISRLEPEDFAVYYCQHYGSSFTWTFGQGTKVEIK
notes: Variable regions only
B16: 2.414.2 (antibody, V domains shown)
VH: QLQLQESGPGLVKPSETLSLTCTVSGGSISSSNYYWGWIRQPPGKGLEWIGTIYYTGSTYYNPSLKSRVTISVDTSKNQFSLKLSSVTAADTAVYYCARHHWVFDYWGQGTLVTVSS
VL: EIVLTQSPDFLSVTPKEKVTITCRASQIIGSSLHWYQQKPDQSPKLLIKYASQSFSGVPSRFSGSGSGTDFTLTLNSLEAEDAATYYCHQSTILPWTFGQGTKVEIK
notes: Variable regions only
B17: 2.998.2 (antibody, V domains shown)
VH: B16 VH with G27D, S32F, N33I, T56S, S85R, L112Q
VL: B16 VL with E1D, S7F, L11Q, I28V, L75I, A80V, I106V
notes: Variable regions only
B18: 2.84.3 (antibody, V domains shown)
VH: B16 VH with S28F, N33S, T56S, S58T, P63S, K77Q
VL: B16 VL with I2V, L11Q, V19I, S31T, Q38K, D70E, L75I, A83T, I93N
notes: Variable regions only; also called 2.84.1; 2.84.2
B19: 2.542.2 (antibody, V domains shown)
VH: B16 VH with N33T, T56S, S85N
VL: B16 VL with K45N, F55V
notes: Variable regions only
B20: 2.351.3 (antibody, V domains shown)
VH: QVQLVQSGAEVKKPGASVKVSCKASGYTFIGYYLHWVRQAPGQGLEWMGSINPNSGGTNYAQKFQGRVTMIRDTSINTAYMELSRLRSDDTAVYYCARDKRITMVRGVHYLYYGWDVWGQGTTVTVSS
VL: DIQMTQSPSSLSASVGDRVTITCRASQVISNYLAWYQQKPGKVPQLLIYAASTLQSGVPSRFSGSGSGTDFTLTISSLQPEDVATYYCQNYKSAPWTFGQGTKVEIK
notes: Variable regions only

Chain of CSF-1R (P07333 20-512 limits assumed): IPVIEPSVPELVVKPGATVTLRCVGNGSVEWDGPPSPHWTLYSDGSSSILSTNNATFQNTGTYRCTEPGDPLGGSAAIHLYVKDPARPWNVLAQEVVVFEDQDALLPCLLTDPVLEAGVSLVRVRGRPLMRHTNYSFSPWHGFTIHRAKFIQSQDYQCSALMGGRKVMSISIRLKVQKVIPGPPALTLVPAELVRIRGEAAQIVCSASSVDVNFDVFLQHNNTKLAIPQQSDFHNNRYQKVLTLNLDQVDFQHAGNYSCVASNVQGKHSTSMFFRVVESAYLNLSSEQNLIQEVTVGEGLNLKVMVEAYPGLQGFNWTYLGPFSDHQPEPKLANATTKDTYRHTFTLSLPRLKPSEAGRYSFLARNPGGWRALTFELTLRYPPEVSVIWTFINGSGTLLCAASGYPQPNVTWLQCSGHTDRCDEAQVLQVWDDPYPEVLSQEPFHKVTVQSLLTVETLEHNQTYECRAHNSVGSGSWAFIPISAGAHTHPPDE

In one test the target is PDGFR-alpha on MG-63 cells (human, UniProt P16234 24-1089). Description: cell-based or functional assay. Note: test concentration or dose not given here.
Chain of PDGFR-alpha on MG-63 cells (P16234 24-1089): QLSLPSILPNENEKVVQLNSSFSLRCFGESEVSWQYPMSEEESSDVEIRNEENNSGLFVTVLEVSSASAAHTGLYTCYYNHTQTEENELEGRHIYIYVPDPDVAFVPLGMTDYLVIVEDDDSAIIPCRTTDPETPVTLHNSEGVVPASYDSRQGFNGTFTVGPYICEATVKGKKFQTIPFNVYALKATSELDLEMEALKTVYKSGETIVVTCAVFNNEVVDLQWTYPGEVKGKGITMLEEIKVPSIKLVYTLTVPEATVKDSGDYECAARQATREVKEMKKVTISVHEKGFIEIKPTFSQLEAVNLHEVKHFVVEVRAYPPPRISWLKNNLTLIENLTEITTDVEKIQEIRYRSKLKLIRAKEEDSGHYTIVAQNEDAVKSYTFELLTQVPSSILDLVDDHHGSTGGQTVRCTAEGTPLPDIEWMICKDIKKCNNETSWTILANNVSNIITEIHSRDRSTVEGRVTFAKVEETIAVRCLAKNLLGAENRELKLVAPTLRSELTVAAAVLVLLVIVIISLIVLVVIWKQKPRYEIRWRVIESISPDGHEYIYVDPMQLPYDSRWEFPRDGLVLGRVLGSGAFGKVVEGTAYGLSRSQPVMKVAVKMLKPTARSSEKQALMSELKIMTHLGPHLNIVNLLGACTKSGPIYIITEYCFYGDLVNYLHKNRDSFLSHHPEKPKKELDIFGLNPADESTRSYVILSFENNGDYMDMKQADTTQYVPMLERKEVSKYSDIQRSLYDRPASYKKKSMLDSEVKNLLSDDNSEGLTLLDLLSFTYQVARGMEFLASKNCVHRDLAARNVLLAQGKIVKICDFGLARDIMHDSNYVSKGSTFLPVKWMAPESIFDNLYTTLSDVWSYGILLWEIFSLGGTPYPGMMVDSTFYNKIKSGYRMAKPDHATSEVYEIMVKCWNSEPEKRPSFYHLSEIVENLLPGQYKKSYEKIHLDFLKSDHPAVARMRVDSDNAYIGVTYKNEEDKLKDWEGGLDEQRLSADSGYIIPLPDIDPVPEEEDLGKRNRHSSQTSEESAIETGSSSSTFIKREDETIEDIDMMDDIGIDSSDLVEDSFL
For B1, the “Average pTyr Inhibition” value worked out at 92%.

For B2, the “Average pTyr Inhibition” value was determined as 91%.

The target in the next test is FLT3 (UniProt P36888 27-541, limits assumed). In words: method not described.
Turning to B3, the binding result is reported as “no binding”.

For the molecule B4, the binding result was “no binding”.

Turning to B5, the binding result is “no binding”.

On to B6, for which the binding result is recorded as “no binding”.

Take B7: the binding result is “no binding”.

On to B8, for which the binding result is on record as “no binding”.

As to B9, the binding result is listed as “no binding”.

For the molecule B10, the binding result is “no binding”.

For the molecule B11, the binding result is given as “no binding”.

Consider B12, for which the binding result is recorded as “no binding”.

As to B13, the binding result was “no binding”.

Take B14: the binding result was “no binding”.

For B15, the binding result is reported as “no binding”.

On to B16, for which the binding result is “no binding”.

In the case of B17, the binding result is recorded as “no binding”.

As for B18, the binding result is “no binding”.

On to B19, for which the binding result is on record as “no binding”.

Consider B20, for which the binding result is listed as “no binding”.

The target in a further test is c-kit (UniProt P10721 26-520, limits assumed). Description: method not described.
Chain of c-kit (P10721 26-520 limits assumed): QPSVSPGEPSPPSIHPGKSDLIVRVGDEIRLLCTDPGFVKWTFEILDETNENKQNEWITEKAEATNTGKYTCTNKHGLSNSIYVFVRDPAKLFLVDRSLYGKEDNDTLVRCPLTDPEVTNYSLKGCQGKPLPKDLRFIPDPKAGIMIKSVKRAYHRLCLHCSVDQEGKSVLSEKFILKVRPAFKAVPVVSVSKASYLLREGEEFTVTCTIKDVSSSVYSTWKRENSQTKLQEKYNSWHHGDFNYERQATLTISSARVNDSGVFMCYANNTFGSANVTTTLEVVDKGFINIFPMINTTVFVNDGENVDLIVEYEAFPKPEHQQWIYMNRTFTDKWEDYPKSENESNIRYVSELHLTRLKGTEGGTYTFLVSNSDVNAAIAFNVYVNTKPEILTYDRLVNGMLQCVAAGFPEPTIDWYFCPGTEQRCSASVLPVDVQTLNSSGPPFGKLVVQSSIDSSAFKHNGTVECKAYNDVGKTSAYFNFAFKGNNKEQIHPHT
Regarding B3, the binding result is recorded as “no binding”.

For the molecule B4, the binding result is given as “no binding”.

Regarding B5, the binding result was “no binding”.

As to B6, the binding result is reported as “no binding”.

Consider B7, for which the binding result was “no binding”.

As for B8, the binding result is “no binding”.

Consider B9, for which the binding result is “no binding”.

B10: the binding result is reported as “no binding”.

Turning to B11, the binding result is listed as “no binding”.

As to B12, the binding result is reported as “no binding”.

Consider B13, for which the binding result is “no binding”.

Consider B14, for which the binding result is “no binding”.

For the molecule B15, the binding result was “no binding”.

Consider B16, for which the binding result is “no binding”.

B17: the binding result was “no binding”.

B18: the binding result is reported as “no binding”.

With B19, the binding result is given as “no binding”.

As to B20, the binding result is listed as “no binding”.

In the next test the target is PDGFR-beta (UniProt P09619 33-530, limits assumed). In words: method not described.
Chain of PDGFR-beta (P09619 33-530 limits assumed): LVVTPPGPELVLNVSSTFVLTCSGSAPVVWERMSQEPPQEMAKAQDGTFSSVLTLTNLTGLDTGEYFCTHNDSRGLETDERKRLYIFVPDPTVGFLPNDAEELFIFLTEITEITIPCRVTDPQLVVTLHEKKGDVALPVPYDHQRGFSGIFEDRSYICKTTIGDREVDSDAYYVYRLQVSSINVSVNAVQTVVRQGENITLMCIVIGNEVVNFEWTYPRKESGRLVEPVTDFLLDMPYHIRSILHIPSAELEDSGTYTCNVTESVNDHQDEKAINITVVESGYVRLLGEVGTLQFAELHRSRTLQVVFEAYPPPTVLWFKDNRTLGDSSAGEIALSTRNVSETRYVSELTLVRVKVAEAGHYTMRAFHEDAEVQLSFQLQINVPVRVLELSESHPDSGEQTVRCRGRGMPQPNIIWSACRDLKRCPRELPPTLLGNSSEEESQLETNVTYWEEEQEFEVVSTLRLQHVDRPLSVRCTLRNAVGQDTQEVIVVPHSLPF
Consider B3, for which the binding result was “no binding”.

Take B4: the binding result is “no binding”.

For B5, the binding result was “no binding”.

As to B6, the binding result is reported as “no binding”.

As to B7, the binding result is “no binding”.

Take B8: the binding result is “no binding”.

As for B9, the binding result is “no binding”.

As to B10, the binding result is reported as “no binding”.

With B11, the binding result is given as “no binding”.

As to B12, the binding result was “no binding”.

B13: the binding result is given as “no binding”.

B14: the binding result is “no binding”.

As for B15, the binding result is “no binding”.

On to B16, for which the binding result was “no binding”.

As to B17, the binding result is reported as “no binding”.

As for B18, the binding result is listed as “no binding”.

As to B19, the binding result is “no binding”.

For the molecule B20, the binding result is recorded as “no binding”.

The next test has as its target CSF-1R (UniProt P07333 20-512, limits assumed). In words: method not described.
With B3, the binding result was “no binding”.

As to B4, the binding result is reported as “no binding”.

Turning to B5, the binding result is on record as “no binding”.

As to B6, the binding result is listed as “no binding”.

Turning to B7, the binding result is given as “no binding”.

For B8, the binding result is on record as “no binding”.

Take B9: the binding result is “no binding”.

Consider B10, for which the binding result is given as “no binding”.

Regarding B11, the binding result is “no binding”.

As to B12, the binding result was “no binding”.

Consider B13, for which the binding result is listed as “no binding”.

For B14, the binding result was “no binding”.

On to B15, for which the binding result is reported as “no binding”.

As to B16, the binding result is given as “no binding”.

In the case of B17, the binding result is “no binding”.

Consider B18, for which the binding result was “no binding”.

As for B19, the binding result is “no binding”.

As for B20, the binding result is “no binding”.
